Measurements from patent US20100297120A1.

Target: epidermal growth factor receptor (EGFR) on EGFR positive U87 cells (UniProt P00533)
Assay: FACS, saturation binding to EGFR on cells

Row | Half saturation | Bmax (RFU) | Substance
1 | 1.8 nM | – | Anti-EGFR-Angiopep-2 conjugate (EGFR antibody monoclonal 528 cross-linked to Angiopep-2 with SATA)
2 | 1.7 nM | 23.6 RFU | EGFR antibody (monoclonal 528 available from ATCC)
